Results published in publication PMC6796840, “An H3K27me3 demethylase-HSFA2 regulatory loop orchestrates transgenerational thermomemory in Arabidopsis”.

B1: BRM-HSE-P2 (dsDNA)
DNA 1: AGCCAGTGGCGATAAGTTTTACTTGTTTCGGGAAAAAAAACTACTTATCGCCACTGGCT
DNA 2: AGCCAGTGGCGATAAGTAGTTTTTTTTCCCGAAACAAGTAAAACTTATCGCCACTGGCT
B2: SGIP1-HSE-P4 (dsDNA)
DNA 1: AGCCAGTGGCGATAAGCTCTGAAAAGTTTCTGTCGAAGTCTTATCGCCACTGGCT
DNA 2: AGCCAGTGGCGATAAGACTTCGACAGAAACTTTTCAGAGCTTATCGCCACTGGCT
B3: BRM-HSE-P1 (dsDNA)
DNA 1: AGCCAGTGGCGATAAGAACAAATTTATTCAGGAATCAGAAACACTTATCGCCACTGGCT
DNA 2: AGCCAGTGGCGATAAGTGTTTCTGATTCCTGAATAAATTTGTTCTTATCGCCACTGGCT
B4: REF6-HSE-P1 (dsDNA)
DNA 1: AGCCAGTGGCGATAAGCTACTAATTTCATGAACTACCAAAGACTCTTATCGCCACTGGCT
DNA 2: AGCCAGTGGCGATAAGAGTCTTTGGTAGTTCATGAAATTAGTAGCTTATCGCCACTGGCT
B5: BRM-HSE-P3 (dsDNA)
DNA 1: AGCCAGTGGCGATAAGATTTTTATTTTTCGAGAAGCCATCTCACTTATCGCCACTGGCT
DNA 2: AGCCAGTGGCGATAAGTGAGATGGCTTCTCGAAAAATAAAAATCTTATCGCCACTGGCT

Target: His-HSFA2 (Arabidopsis thaliana, UniProt O80982 1-345)
Sequence (O80982 whole entry): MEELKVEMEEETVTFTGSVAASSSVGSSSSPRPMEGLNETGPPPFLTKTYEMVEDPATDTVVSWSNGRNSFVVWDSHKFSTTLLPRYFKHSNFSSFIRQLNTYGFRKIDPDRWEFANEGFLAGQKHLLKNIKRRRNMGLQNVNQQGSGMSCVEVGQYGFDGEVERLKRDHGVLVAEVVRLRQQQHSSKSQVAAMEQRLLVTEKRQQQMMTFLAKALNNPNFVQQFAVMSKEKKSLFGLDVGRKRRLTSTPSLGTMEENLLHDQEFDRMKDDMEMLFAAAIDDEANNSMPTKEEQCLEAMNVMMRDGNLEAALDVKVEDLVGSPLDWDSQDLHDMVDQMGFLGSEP
Test: EMSA; HSFA2: 10 mM Tris-HCl pH 7.6, 25 mM KCl, 2.5 mM MgCl2, 1 mM EDTA, 1 mM DTT, 10% glycerol, 25 C 30 min; REF6C: 25 mM Tris-HCl pH 8.0, 100 mM NaCl, 2.5 mM MgCl2
Conditions: protein: recombinant; tags: His (pET32a in Methods); chain copies: 3; label: Cy5 end

Binding result, binds:
B1
B2
B3
B4
B5
